In test [1] the target is T1, Human IFNβ (mature human interferon beta) (human, UniProt P01574 22-187).
T1 construct: Recombinant human IFNβ (Peprotech for SPR); In some functional assays it is endogenous IFNβ secreted by primary human cells; also called hIFN-β; recombinant human IFNβ
Put plainly: SPR, Biacore T200; CTI-AF1 immobilized on CM5 chip, human IFNβ (Peprotech) 10 to 0.078125 nM, 1:1 model. (In general: Surface plasmon resonance follows binding to a sensor surface in real time, without labels.)

For test [2], the target named is T1, Human IFNβ (mature human interferon …). Put plainly: SPR, Biacore T200; antibody amine-coupled on CM5 chip, human IFNβ as analyte, 1:1 model.
A further test has as its target T2, Rat IFNβ (rat, UniProt P70499 22-184).
T2 sequence: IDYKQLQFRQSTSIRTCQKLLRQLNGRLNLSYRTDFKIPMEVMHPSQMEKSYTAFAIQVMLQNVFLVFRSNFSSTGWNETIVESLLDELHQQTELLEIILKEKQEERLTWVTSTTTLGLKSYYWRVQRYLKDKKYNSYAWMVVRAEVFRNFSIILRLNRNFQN
Put plainly: plate ELISA, rat IFNβ coated at 5 µg/mL. Background: An ELISA detects its analyte on a solid surface through an enzyme-linked reagent.

Another test concerns the target T3, Cynomolgus monkey IFNβ (cynomolgus monkey, UniProt O77812 22-187).
T3 construct: also called cyno-IFNβ
Put plainly: ELISA (summary value); cynomolgus monkey IFNβ.

The target in another test is T4, Rabbit IFNβ (rabbit).
T4 chain: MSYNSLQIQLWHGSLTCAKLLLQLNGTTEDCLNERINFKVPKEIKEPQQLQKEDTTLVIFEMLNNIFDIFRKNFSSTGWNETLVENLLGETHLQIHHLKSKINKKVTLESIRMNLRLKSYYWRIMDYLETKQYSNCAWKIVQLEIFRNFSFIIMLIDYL
Put plainly: plate ELISA, rabbit IFNβ coated at 10 ng/mL.

Test [3] concerns the target T1, Human IFNβ (mature human interferon …). Put plainly: SPR (affinity maturation); after affinity maturation (four light chain mutations).

1 molecule from US20170313769A1 (Pfizer, published 2017) can be followed below.

T3 sequence (O77812 22-187): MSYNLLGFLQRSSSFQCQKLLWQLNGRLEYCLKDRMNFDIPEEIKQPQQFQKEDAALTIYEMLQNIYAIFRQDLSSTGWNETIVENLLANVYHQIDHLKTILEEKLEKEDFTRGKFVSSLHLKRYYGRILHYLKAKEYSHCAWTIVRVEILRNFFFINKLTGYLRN

B1: CTI-AF1 (antibody, human IgG1, kappa, V domains shown)
VH: QVQLVQSGAEVKKPGSSVKVSCKASGYTFSRYWMHWVRQAPGQGLEWMGHIDPSDSYTYYNQKFKGRVTITADESTSTAYMELSSLRSEDTAVYYCARWDYGNLLFEYWGQGTLVTVSS
VL: DIQMTQSPSSLSASVGDRVTITCRTSQDIGNYLNWYQQKPGKAFKLLIYSTSRLHSGVPSRFSGSGSGTDFTLTISSLQPEDFATYYCQQGIILPITFGGGTKVEIKR
notes: Humanized IgG1; The C-terminal K of the heavy chain is printed as optional, '(K)'; also called anti-IFNβ antibody; humanized IgG1 antibody against interferon beta
Regarding B1, the Kd (as a rule, the concentration at which binding is half-saturated) in test [1] was determined as 0.0367 nM; in test [2], 0.036 nM; in test [3], 0.029 nM. Besides, the binding result in the test with Rat IFNβ is “no binding”. Also, the EC50 (in general, the midpoint of the concentration-response curve) is 0.025 nM with Cynomolgus monkey IFNβ and 2.95 nM with Rabbit IFNβ.
